How the values were obtained:
Assay in all cases: SPR
[1] = test system: La (lupus antigen, SSB);HuR (ELAVL1); settings: equimolar La and HuR, same total protein; 1:1 fit; SPR: HBS-EP buffer, Biacore T200 SA chip, 1:1 fit. UV crosslinking/EMSA: 2x RNA-binding buffer listed as 5 mM HEPES, 25 mM KCl, 2 mM MgCl2, 2 mM DTT, 0.1 mM …
[2] = test system: La (lupus antigen, SSB); settings: SPR: HBS-EP buffer, Biacore T200 SA chip, 1:1 fit. UV crosslinking/EMSA: 2x RNA-binding buffer listed as 5 mM HEPES, 25 mM KCl, 2 mM MgCl2, 2 mM DTT, 0.1 mM …
[3] = test system: HuR (ELAVL1); settings: HuR alone; SPR: HBS-EP buffer, Biacore T200 SA chip, 1:1 fit. UV crosslinking/EMSA: 2x RNA-binding buffer listed as 5 mM HEPES, 25 mM KCl, 2 mM MgCl2, 2 mM DTT, 0.1 mM …

Substance: PDCD4 3'UTR full length
- Kd [1]: 10.5 nM
- Kd ([2]; La alone, first experiment): 27 nM
- Kd ([2]; La alone, second experiment): 22 nM
- Kd ([2]; equimolar mix with HuR triple mutant (non-binding), same total protein): 27.5 nM
- Kd [3]: 42.7 nM

— article PMC7949077
